Our source for the Kd values is publication PMC10786891, “Massively parallel profiling of RNA-targeting CRISPR-Cas13d”.

Sequences and labels used below:
T1: EsCas13d, nuclease-dead (Eubacterium siraeum, UniProt B0MS50, R295A;H300A;R849A;H854A)
T1 sequence: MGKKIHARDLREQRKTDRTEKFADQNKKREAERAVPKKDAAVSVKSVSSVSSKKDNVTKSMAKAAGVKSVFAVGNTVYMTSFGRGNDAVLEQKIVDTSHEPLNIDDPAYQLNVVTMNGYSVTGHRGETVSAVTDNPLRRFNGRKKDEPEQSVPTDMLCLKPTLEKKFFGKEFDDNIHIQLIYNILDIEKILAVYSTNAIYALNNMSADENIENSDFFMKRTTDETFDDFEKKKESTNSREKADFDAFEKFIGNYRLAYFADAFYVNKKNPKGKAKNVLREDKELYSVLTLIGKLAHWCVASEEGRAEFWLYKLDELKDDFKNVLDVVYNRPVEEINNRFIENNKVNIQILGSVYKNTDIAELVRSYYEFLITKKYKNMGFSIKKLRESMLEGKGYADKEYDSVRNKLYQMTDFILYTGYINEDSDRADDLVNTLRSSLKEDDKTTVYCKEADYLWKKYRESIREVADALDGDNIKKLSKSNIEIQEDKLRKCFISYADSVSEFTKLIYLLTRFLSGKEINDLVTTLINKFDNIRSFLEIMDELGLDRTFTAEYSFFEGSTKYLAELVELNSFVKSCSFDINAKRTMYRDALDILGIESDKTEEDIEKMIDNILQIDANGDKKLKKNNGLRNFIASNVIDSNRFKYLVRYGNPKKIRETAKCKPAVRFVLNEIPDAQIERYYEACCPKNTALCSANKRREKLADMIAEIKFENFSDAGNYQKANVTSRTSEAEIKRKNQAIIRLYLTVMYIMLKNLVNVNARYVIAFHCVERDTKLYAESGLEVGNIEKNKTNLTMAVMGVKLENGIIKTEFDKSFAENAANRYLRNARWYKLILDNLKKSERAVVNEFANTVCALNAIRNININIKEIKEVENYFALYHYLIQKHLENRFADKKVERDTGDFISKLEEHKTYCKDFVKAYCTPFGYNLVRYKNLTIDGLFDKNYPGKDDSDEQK

B1: target 1 C6U,C7G (mixed)
RNA 1: CACCCGUGCAAAAAUGCAGGGGUCUAAAACUGAGCGGAUAACCUCUCUAUGG
RNA 2: GGGAAUGGAUCCACAUCUACGAAUUCGUACCAUAGAGAGGUUAUGUGCUCACCGAGAUCGGAAGAGCACACGU
B2: target 1 insC 3' of 19,insA 3' of 11 (mixed)
RNA 1: B1 RNA 1
RNA 2: GGGAAUGGAUCCACAUCUACGAAUUCGUACCAUCAGAGAGGUAUAUCCGCUCACCGAGAUCGGAAGAGCACACGU
B3: target 1 insC 3' of 8,insA 3' of 7 (mixed)
RNA 1: B1 RNA 1
RNA 2: GGGAAUGGAUCCACAUCUACGAAUUCGUACCAUAGAGAGGUUAUCCACGCUCACCGAGAUCGGAAGAGCACACGU
B4: target 1 insA 3' of 7,insC 3' of 1 (mixed)
RNA 1: B1 RNA 1
RNA 2: B3 RNA 2 with C46A, A47C, C48G, G49C, C50U, U51C, C52A, A53C
B5: target 1 insU 3' of 18,insU 3' of 2 (mixed)
RNA 1: B1 RNA 1
RNA 2: GGGAAUGGAUCCACAUCUACGAAUUCGUACCAUAUGAGAGGUUAUCCGCUCUACCGAGAUCGGAAGAGCACACGU
B6: target 1 insA 3' of 17,insU 3' of 6 (mixed)
RNA 1: B1 RNA 1
RNA 2: B5 RNA 2 with U35G, G36A, G48U, C49G, U50C, C51U, U52C
B7: target 1 insU 3' of 20,insU 3' of 2 (mixed)
RNA 1: B1 RNA 1
RNA 2: B5 RNA 2 with A34U, U35A
B8: target 1 complement block 2-11 (mixed)
RNA 1: B1 RNA 1
RNA 2: B1 RNA 2 with U41A, U42A, A43U, U44A, U46G, G47C, C48G, U49A, C50G
B9: target 1 C4U,U11C (mixed)
RNA 1: B1 RNA 1
RNA 2: B1 RNA 2 with U41C, G45C, U46C, C48U
B10: target 1 G5C,A20C (mixed)
RNA 1: B1 RNA 1
RNA 2: B1 RNA 2 with A32C, G45C, U46C, G47C
B11: target 1 insG 3' of 22,insC 3' of 22 (mixed)
RNA 1: B1 RNA 1
RNA 2: GGGAAUGGAUCCACAUCUACGAAUUCGUACGCCAUAGAGAGGUUAUCCGCUCACCGAGAUCGGAAGAGCACACGU
B12: target 1 C6U,A9G (mixed)
RNA 1: B1 RNA 1
RNA 2: B1 RNA 2 with A43G, G45C
B13: target 1 del11,del15 (mixed)
RNA 1: B1 RNA 1
RNA 2: GGGAAUGGAUCCACAUCUACGAAUUCGUACCAUAGAAGGUAUCCGCUCACCGAGAUCGGAAGAGCACACGU
B14: target 1 insG 3' of 18,insA 3' of 15 (mixed)
RNA 1: B1 RNA 1
RNA 2: B2 RNA 2 with C34A, A35G, G40A, U42G, A43U
B15: target 1 complement block 4-12 (mixed)
RNA 1: B1 RNA 1
RNA 2: B1 RNA 2 with G40C, U41A, U42A, A43U, U44A, U46G, G47C, C48G
B16: target 1 C7A,G15A (mixed)
RNA 1: B1 RNA 1
RNA 2: B1 RNA 2 with G37A, G45A, U46C
B17: target 1 insG 3' of 19,insA 3' of 5 (mixed)
RNA 1: B1 RNA 1
RNA 2: B5 RNA 2 with A34G, U35A, C49A, U50C, C51U, U52C
B18: target 1 G12A,G13A (mixed)
RNA 1: B1 RNA 1
RNA 2: B1 RNA 2 with G39A, G40A, G45C, U46C
B19: target 1 C7U,U8C (mixed)
RNA 1: B1 RNA 1
RNA 2: B1 RNA 2 with U44C, G45U, U46C
B20: target 1 insU 3' of 13,insU 3' of 6 (mixed)
RNA 1: B1 RNA 1
RNA 2: B3 RNA 2 with G40U, U41G, A43U, U44A, C45U, A47C, C48U
B21: target 1 insU 3' of 18,insU 3' of 7 (mixed)
RNA 1: B1 RNA 1
RNA 2: B5 RNA 2 with C47U, G48C, C49G, U50C, C51U, U52C
B22: target 1 insA 3' of 6,insU 3' of 5 (mixed)
RNA 1: B1 RNA 1
RNA 2: B3 RNA 2 with C48G, G49U
B23: target 1 complement block 1-11 (mixed)
RNA 1: B1 RNA 1
RNA 2: GGGAAUGGAUCCACAUCUACGAAUUCGUACCAUAGAGAGGAAUAGGCGAGUCCGAGAUCGGAAGAGCACACGU
B24: target 1 insU 3' of 15,insA 3' of 4 (mixed)
RNA 1: B1 RNA 1
RNA 2: B5 RNA 2 with U35G, G36A, A37G, G38U, U50A, C51U, U52C
B25: target 1 A1C,C6A (mixed)
RNA 1: B1 RNA 1
RNA 2: B1 RNA 2 with G45C, U46A, A51C
B26: target 1 insC 3' of 17,insC 3' of 16 (mixed)
RNA 1: B1 RNA 1
RNA 2: B11 RNA 2 with G31C, C32A, C33U, U35G, A36C, G37A, A38C
B27: target 1 insA 3' of 22,insC 3' of 5 (mixed)
RNA 1: B1 RNA 1
RNA 2: B5 RNA 2 with C31A, A32C, U33A, A34U, U35A, U50C, C51U, U52C
B28: target 1 insG 3' of 18,insU 3' of 5 (mixed)
RNA 1: B1 RNA 1
RNA 2: B5 RNA 2 with U35G, C49U, U50C, C51U, U52C

Where a chain is given by its changes, count along the chain named. Numbers in names are those of the source.

The target in the series is T1, EsCas13d, nuclease-dead. Kind of series: crRNA (strand 1, pre-loaded); Mg2+; 40 mM Tris-HCl pH 7.5, 150 mM NaCl, 6 mM MgCl2, 1 mM DTT, 0.1% Tween-20, 0.2 mg/ml BSA; 25 C; 10 min per concentration, then washed. The note with it: tags: His6-TwinStrep-SUMO cleaved; N-terminal SNAP kept (SNAP-Surface 488); label: 3' end held by stalled T7 RNA polymerase.
Regarding B1, the equilibrium dissociation constant (Kd) was determined as 7.9 ± 0.8 nM.

In turn, B2 came in with an equilibrium dissociation constant (Kd) of 98 ± 16 nM.

As for B3, the Kd came to 15 ± 0.6 nM.

In turn, B4 yielded a dissociation constant Kd of 5.8 ± 0.4 nM.

In turn, B5 gave a Kd of 25.8 ± 2.4 nM.

In the case of B6, binding was characterised by a dissociation constant (Kd) of 14.5 ± 0.8 nM.

The molecule B7 showed a Kd of 16.3 ± 1.6 nM.

On to B8, for which the Kd was 12.3 ± 0.33 nM.

B9: the Kd is 27 ± 5 nM.

The molecule B10 had a Kd of 47 ± 7 nM.

The molecule B11 showed a Kd of 9.1 ± 0.4 nM. This Kd lies about 5.2-fold lower than the previous one.

In the case of B12, the Kd is 14.2 ± 0.9 nM.

B13 displayed a dissociation constant Kd of 35 ± 5 nM.

B14 returned a dissociation constant (Kd) of 61 ± 10 nM.

As to B15, the dissociation constant Kd was 19.6 ± 1.3 nM.

B16: binding was put at a Kd of 14.6 ± 0.5 nM.

In the case of B17, binding was put at a Kd of 42 ± 5 nM.

In turn, B18 gave a Kd of 5.2 ± 0.23 nM.

In the case of B19, binding was characterised by a dissociation constant (Kd) of 8.7 ± 0.5 nM.

With B20, the Kd was found to be 17.9 ± 1.3 nM. This Kd lies about 2.1-fold higher than the previous one.

As for B21, binding was characterised by a dissociation constant (Kd) of 47 ± 4 nM.

Turning to B22, the Kd worked out at 41 ± 5 nM.

Regarding B23, the Kd is 13.3 ± 0.5 nM.

For the molecule B24, the dissociation constant (Kd) stood at 9.4 ± 0.8 nM.

In the case of B25, the Kd was 7 ± 0.5 nM.

On to B26, for which the Kd came to 27.3 ± 1.6 nM.

Consider B27, for which the affinity, expressed as Kd, was 27.7 ± 3.5 nM.

For the molecule B28, the affinity, expressed as Kd, was 65 ± 11 nM.

Usually Kd stands for a measure of binding affinity in units of concentration. The low end stands for tighter binding, the high end for weaker binding.
